Here are results for 6 variants from IntAct's records for PubMed 31515488.

B1: "Delta(3,5)-Delta(2,4)-dienoyl-CoA isomerase, mitochondrial" (Homo sapiens), Q13011 (parent)
chain: MAAGIVASRRLRDLLTRRLTGSNYPGLSISLRLTGSSAQEEASGVALGEAPDHSYESLRVTSAQKHVLHVQLNRPNKRNAMNKVFWREMVECFNKISRDADCRAVVISGAGKMFTAGIDLMDMASDILQPKGDDVARISWYLRDIITRYQETFNVIERCPKPVIAAVHGGCIGGGVDLVTACDIRYCAQDAFFQVKEVDVGLAADVGTLQRLPKVIGNQSLVNELAFTARKMMADEALGSGLVSRVFPDKEVMLDAALALAAEISSKSPVAVQSTKVNLLYSRDHSVAESLNYVASWNMSMLQTQDLVKSVQATTENKELKTVTFSKL
B2: Protein dispatched homolog 1 (Homo sapiens), Q96F81 (parent)
chain: MAMSNGNNDFVVLSNSSIATSAANPSPLTPCDGDHAAQQLTPKEATRTKVSPNGCLQLNGTVKSSFLPLDNQRMPQMLPQCCHPCPYHHPLTSHSSHQECHPEAGPAAPSALASCCMQPHSEYSASLCPNHSPVYQTTCCLQPSPSFCLHHPWPDHFQHQPVQQHIANIRPSRPFKLPKSYAALIADWPVVVLGMCTMFIVVCALVGVLVPELPDFSDPLLGFEPRGTAIGQRLVTWNNMVKNTGYKATLANYPFKYADEQAKSHRDDRWSDDHYEREKREVDWNFHKDSFFCDVPSDRYSRVVFTSSGGETLWNLPAIKSMCNVDNSRIRSHPQFGDLCQRTTAASCCPSWTLGNYIAILNNRSSCQKIVERDVSHTLKLLRTCAKHYQNGTLGPDCWDMAARRKDQLKCTNVPRKCTKYNAVYQILHYLVDKDFMTPKTADYATPALKYSMLFSPTEKGESMMNIYLDNFENWNSSDGVTTITGIEFGIKHSLFQDYLLMDTVYPAIAIVIVLLVMCVYTKSMFITLMTMFAIISSLIVSYFLYRVVFHFEFFPFMNLTALIILVGIGADDAFVLCDVWNYTKFDKPHAETSETVSITLQHAALSMFVTSFTTAAAFYANYVSNITAIRCFGVYAGTAILVNYVLMVTWLPAVVVLHERYLLNIFTCFKKPQQQIYDNKSCWTVACQKCHKVLFAISEASRIFFEKVLPCIVIKFRYLWLFWFLALTVGGAYIVCINPKMKLPSLELSEFQVFRSSHPFERYDAEYKKLFMFERVHHGEELHMPITVIWGVSPEDNGNPLNPKSKGKLTLDSSFNIASPASQAWILHFCQKLRNQTFFYQTDEQDFTSCFIETFKQWMENQDCDEPALYPCCSHWSFPYKQEIFELCIKRAIMELERSTGYHLDSKTPGPRFDINDTIRAVVLEFQSTYLFTLAYEKMHQFYKEVDSWISSELSSAPEGLSNGWFVSNLEFYDLQDSLSDGTLIAMGLSVAVAFSVMLLTTWNIIISLYAIISIAGTIFVTVGSLVLLGWELNVLESVTISVAVGLSVDFAVHYGVAYRLAPDPDREGKVIFSLSRVGSAMAMAALTTFVAGAMMMPSTVLAYTQLGTFMMLIMCISWAFATFFFQCMCRCLGPQGTCGQIPLPKKLQCSAFSHALSTSPSDKGQSKTHTINAYHLDPRGPKSELEHEFYELEPLASHSCTAPEKTTYEETHICSEFFNSQAKNLGMPVHAAYNSELSKSTESDAGSALLQPPLEQHTVCHFFSLNQRCSCPDAYKHLNYGPHSCQQMGDCLCHQCSPTTSSFVQIQNGVAPLKATHQAVEGFVHPITHIHHCPCLQGRVKPAGMQNSLPRNFFLHPVQHIQAQEKIGKTNVHSLQRSIEEHLPKMAEPSSFVCRSTGSLLKTCCDPENKQRELCKNRDVSNLESSGGTENKAGGKVELSLSQTDASVNSEHFNQNEPKVLFNHLMGEAGCRSCPNNSQSCGRIVRVKCNSVDCQMPNMEANVPAVLTHSELSGESLLIKTL
partner: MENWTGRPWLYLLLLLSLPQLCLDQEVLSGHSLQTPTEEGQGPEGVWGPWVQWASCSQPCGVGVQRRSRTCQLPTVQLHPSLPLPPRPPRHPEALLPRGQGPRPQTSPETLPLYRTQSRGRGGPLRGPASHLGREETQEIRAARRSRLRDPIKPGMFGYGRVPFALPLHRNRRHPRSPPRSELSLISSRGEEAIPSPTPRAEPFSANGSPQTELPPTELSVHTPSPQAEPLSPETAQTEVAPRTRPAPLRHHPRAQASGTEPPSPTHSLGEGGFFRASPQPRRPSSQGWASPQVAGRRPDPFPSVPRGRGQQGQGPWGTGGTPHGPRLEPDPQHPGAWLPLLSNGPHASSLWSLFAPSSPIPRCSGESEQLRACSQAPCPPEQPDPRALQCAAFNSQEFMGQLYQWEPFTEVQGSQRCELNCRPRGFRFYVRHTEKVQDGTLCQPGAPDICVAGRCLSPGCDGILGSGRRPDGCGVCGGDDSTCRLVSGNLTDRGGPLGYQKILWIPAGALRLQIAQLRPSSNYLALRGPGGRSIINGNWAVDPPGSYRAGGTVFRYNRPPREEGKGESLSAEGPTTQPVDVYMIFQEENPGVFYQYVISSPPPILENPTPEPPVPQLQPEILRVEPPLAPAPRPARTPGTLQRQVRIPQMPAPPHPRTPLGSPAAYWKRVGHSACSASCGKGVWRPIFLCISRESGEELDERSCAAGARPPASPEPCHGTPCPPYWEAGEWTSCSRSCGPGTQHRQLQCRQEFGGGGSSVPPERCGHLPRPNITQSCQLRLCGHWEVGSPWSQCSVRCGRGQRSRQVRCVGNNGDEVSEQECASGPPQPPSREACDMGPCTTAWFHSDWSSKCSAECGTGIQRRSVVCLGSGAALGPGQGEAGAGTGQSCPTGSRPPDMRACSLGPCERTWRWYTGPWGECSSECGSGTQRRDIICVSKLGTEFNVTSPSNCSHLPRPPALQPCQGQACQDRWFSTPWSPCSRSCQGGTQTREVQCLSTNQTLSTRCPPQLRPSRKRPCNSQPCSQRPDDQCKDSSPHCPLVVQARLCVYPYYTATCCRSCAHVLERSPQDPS
B3: Cyclin-dependent kinase 4 inhibitor C (Homo sapiens), P42773 (parent)
chain: MAEPWGNELASAAARGDLEQLTSLLQNNVNVNAQNGFGRTALQVMKLGNPEIARRLLLRGANPDLKDRTGFAVIHDAARAGFLDTLQTLLEFQADVNIEDNEGNLPLHLAAKEGHLRVVEFLVKHTASNVGHRNHKGDTACDLARLYGRNEVVSLMQANGAGGATNLQ
partner: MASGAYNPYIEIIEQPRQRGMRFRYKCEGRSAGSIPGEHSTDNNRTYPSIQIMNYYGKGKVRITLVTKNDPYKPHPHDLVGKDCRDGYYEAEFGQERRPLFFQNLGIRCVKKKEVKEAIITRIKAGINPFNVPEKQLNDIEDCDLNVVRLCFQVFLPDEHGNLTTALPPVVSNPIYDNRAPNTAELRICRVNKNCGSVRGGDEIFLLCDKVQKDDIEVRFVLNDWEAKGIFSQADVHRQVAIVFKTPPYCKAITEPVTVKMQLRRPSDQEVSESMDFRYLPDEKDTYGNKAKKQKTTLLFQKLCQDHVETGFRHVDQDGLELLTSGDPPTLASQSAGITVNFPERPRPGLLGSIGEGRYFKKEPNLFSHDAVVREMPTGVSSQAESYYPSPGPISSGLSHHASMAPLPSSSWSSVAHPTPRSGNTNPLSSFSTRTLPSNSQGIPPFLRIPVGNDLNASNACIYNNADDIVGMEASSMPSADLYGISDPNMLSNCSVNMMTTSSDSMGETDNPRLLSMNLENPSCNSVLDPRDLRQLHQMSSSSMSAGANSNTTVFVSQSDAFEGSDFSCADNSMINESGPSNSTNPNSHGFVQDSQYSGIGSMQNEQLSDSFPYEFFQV
B4: Zinc finger protein Aiolos (Homo sapiens), Q9UKT9 (parent)
chain: MEDIQTNAELKSTQEQSVPAESAAVLNDYSLTKSHEMENVDSGEGPANEDEDIGDDSMKVKDEYSERDENVLKSEPMGNAEEPEIPYSYSREYNEYENIKLERHVVSFDSSRPTSGKMNCDVCGLSCISFNVLMVHKRSHTGERPFQCNQCGASFTQKGNLLRHIKLHTGEKPFKCHLCNYACQRRDALTGHLRTHSVEKPYKCEFCGRSYKQRSSLEEHKERCRTFLQSTDPGDTASAEARHIKAEMGSERALVLDRLASNVAKRKSSMPQKFIGEKRHCFDVNYNSSYMYEKESELIQTRMMDQAINNAISYLGAEALRPLVQTPPAPTSEMVPVISSMYPIALTRAEMSNGAPQELEKKSIHLPEKSVPSERGLSPNNSGHDSTDTDSNHEERQNHIYQQNHMVLSRARNGMPLLKEVPRSYELLKPPPICPRDSVKVINKEGEVMDVYRCDHCRVLFLDYVMFTIHMGCHGFRDPFECNMCGYRSHDRYEFSSHIARGEHRALLK
partner: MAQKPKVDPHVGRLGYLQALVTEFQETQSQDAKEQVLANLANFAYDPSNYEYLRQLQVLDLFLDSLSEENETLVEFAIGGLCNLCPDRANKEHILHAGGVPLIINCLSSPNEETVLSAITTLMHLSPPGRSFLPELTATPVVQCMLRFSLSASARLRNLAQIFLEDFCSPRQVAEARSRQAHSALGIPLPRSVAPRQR

Variants of B1 are the subject of the first assay. The note with it: with traf1_human TRAF1, Q13077.
traf1_human TRAF1, Q13077, sequence (Q13077 whole entry): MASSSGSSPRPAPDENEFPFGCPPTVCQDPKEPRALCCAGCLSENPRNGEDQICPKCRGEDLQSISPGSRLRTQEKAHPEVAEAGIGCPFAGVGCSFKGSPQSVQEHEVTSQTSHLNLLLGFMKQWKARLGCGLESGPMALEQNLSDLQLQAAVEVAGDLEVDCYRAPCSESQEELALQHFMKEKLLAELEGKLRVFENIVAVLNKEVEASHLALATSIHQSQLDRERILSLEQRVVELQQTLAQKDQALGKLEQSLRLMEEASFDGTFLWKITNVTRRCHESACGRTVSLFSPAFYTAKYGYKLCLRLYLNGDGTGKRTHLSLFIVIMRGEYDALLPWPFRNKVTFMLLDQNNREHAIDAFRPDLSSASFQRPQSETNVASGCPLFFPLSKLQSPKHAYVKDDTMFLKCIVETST
For E41A, the “effect of a mutation on the interaction” value is reported as “with no effect”.

Variants of B2 are the subject of another assay. As to conditions: with atl4_human ADAMTSL4, Q6UY14.
Turning to E103D, the “effect of a mutation on the interaction” value is “with no effect”.

Take E103K: the “effect of a mutation on the interaction” value was “with no effect”.

The variants in another assay derive from B3. As to conditions: with rel_human REL.
Regarding V31L, the “effect of a mutation on the interaction” value is on record as “disrupting interaction strength”.

As to T69A, the “effect of a mutation on the interaction” value is “with no effect”.

The variants in a further assay derive from B4. The note with it: with armc7_human ARMC7, Q9H6L4.
Regarding N119D, the “effect of a mutation on the interaction” value is reported as “with no effect”.
